Data published in the Human Domainome abundance scans (Beltran et al. 2025).

B1: Zinc finger homeobox protein 3, residues 2244 to 2299; numbered along this chain, Q15911 (parent)
chain: SSRTRFTDYQLRVLQDFFDANAYPKDDEFEQLSNLLNLPTRVIVVWFQNARQKARK
B2: Bromodomain adjacent to zinc finger domain protein 2B, residues 1927 to 1982; numbered along this chain, Q9UIF8 (parent)
chain: KSIMKVYCQICRKGDNEELLLLCDGCDKGCHTYCHRPKITTIPDGDWFCPACIAKA

Variants of: B1
Experiment: abundance fitness (aPCA) (normalised: wild type 0, dead -1); higher = more abundant; growth selection in yeast, the domain comes from the species named
Conditions: Homo sapiens

Abundance fitness, by site and new letter:
V42: K -0.036, Y -0.134, P 0.026, M -0.059, L 0.039, R -0.083
V13: K 0.008
D16: K -0.179, C -0.472, E -0.129
Q52: C 0.002, D 0.239, M -0.142, L -0.107, S -0.023, N -0.144
K25: A -0.075, H -0.267
P39: N -0.157, A -0.342, V -1.09, H -0.149, T -0.209, G -0.297, C -0.634
D27: P -0.388, A -0.117, Q -0.121, C -0.294, Y -0.16, E -0.084, N -0.063
E30: G -0.357
Q10: I -0.769, R -0.724, S -0.445, F -0.569
I43: W -0.879, E -1.07, N -1

Variants of: B2
Experiment: as above
Conditions: Homo sapiens

Abundance fitness of substitutions, site by site:
V6: G -0.045, E -0.092, I -0.068, C -0.208, M -0.064, R 0.036, K 0.117, T -0.028, A -0.132, S 0.014, Q -0.043, Y 0.171, P -0.143, F 0.064, N -0.124, D -0.007, H -0.036, L -0.076
K1: Y -0.318, E -0.035, V -0.581, L -0.693, S -0.176, I -0.262, M -0.157, D -0.199, A -0.398, T -0.155, R -0.366, C -0.279, F -0.783
I3: T -0.063, H -0.144, P -0.081, C -0.129, L -0.189, A 0.014, Q 0.104, S -0.052, Y -0.327, M -0.088, R -0.125, F -0.282, V -0.079, E -0.103, D 0.059, W -0.221, N 0.105
M4: N -0.169, K -0.127, G -0.325, I -0.068, L -0.145, T -0.06, C -0.054, Q -0.065, R -0.157, E -0.184, H -0.009, V -0.138, S -0.161, A -0.316, P -0.183
S2: C -0.181, K -0.1, M -0.23, Y -0.558, N -0.506, Q -0.073, T 0.019, P -0.243, W -0.379, G 0.065, H 0.085, I 0.051, R -0.077, E 0.034, V -0.156, A -0.084, F -0.155, D 0.061
K5: Q -0.113, E -0.156, M -0.083, P -0.198, T -0.056, I -0.334, V -0.176, D -0.162, G -0.077, A -0.158, R -0.095, W -0.303, L -0.202, S -0.019, F -0.444, C -0.125, N -0.035
C8: H -1.02, P -0.686, F -0.978, M -0.807, A -1.25, N -1.11, G -0.916, I -1.34, D -1, L -1.13, E -0.836
Y7: I -0.197, H -0.045, E -0.018, A -0.09, S -0.025, Q -0.043, F -0.086, P -0.179, M -0.059, R -0.152, V -0.145, N 0.057, D 0.142, K -0.147, T -0.102, G -0.118, L -0.14, C -0.136
